# According to PMC9573744, “Structural Insight of KSIII (β-Ketoacyl-ACP Synthase)-like Acyltransferase ChlB3 in the Biosynthesis of Chlorothricin” (Molecules, 2022):
# Target: the molecule itself
# Assay: crystal structure; sitting drop vapor diffusion, 0.1 M HEPS pH 7.0, 1.4 M sodium acetate-trihydrate, 20 °C; space group P212121, four dimers per asymmetric unit; 3.1 Å
protein,measurement,value
"ChlB3 (enzyme, Streptomyces antibioticus DSM 40725, ChlB3 acyltransferase of Streptomyces antibioticus DSM 40725, amplified from genomic DNA; chlB3 of 1044 bp cloned into pET28a (NheI/HindIII); also called KSIII (β-ketoacyl-ACP synthase)-like acyltransferase ChlB3; source: E. coli BL21 (DE3), purified (Nickel-NTA, Superdex-200 gel filtration)) MRTPDIFIKATGRFLPETVSVEWAVEQGHYSAEDAELHELGGAAVAGDTPAPDMALWAAQQAVKRCGHRPEDLGLLLYVDSWHQGPDGWQPQYYLQRHLVGGDVLAVEIQQGCNGMFSALELAAAHLRAGPRPGSALVVAADNFGTPLFDRWTTGPGYIAGDGAGAVVLTTEPGFARLLAVRSLAVPEAEQMHRGAEPLFPPGATIGRPLNFTSRNAAFRELSLTEGLGTGALMRVHQRTLEVVEKTLSEAGITLGDITRVAYMNFSREIVEQRCMAALGLPMSASTWEFGRKLGHLGASDQVVALDELVTTGELGPGDHLLMLGMGPGVTLSCAVVKVLTPAPWSD",stoichiometry N,2
